Key:
Experiment in all cases: cell-based or functional assay
Pig IR = Pig IR (pig, UniProt F1SCL0 28-1382)
Rat IR = Rat IR (rat, UniProt P15127 27-1383)
[1] = target: human insulin receptor isoform B (human, UniProt P06213 28-1382)
[2] = target: human insulin receptor isoform A (human, UniProt P06213-2 28-1370)

Chain of Rat IR (P15127 27-1383): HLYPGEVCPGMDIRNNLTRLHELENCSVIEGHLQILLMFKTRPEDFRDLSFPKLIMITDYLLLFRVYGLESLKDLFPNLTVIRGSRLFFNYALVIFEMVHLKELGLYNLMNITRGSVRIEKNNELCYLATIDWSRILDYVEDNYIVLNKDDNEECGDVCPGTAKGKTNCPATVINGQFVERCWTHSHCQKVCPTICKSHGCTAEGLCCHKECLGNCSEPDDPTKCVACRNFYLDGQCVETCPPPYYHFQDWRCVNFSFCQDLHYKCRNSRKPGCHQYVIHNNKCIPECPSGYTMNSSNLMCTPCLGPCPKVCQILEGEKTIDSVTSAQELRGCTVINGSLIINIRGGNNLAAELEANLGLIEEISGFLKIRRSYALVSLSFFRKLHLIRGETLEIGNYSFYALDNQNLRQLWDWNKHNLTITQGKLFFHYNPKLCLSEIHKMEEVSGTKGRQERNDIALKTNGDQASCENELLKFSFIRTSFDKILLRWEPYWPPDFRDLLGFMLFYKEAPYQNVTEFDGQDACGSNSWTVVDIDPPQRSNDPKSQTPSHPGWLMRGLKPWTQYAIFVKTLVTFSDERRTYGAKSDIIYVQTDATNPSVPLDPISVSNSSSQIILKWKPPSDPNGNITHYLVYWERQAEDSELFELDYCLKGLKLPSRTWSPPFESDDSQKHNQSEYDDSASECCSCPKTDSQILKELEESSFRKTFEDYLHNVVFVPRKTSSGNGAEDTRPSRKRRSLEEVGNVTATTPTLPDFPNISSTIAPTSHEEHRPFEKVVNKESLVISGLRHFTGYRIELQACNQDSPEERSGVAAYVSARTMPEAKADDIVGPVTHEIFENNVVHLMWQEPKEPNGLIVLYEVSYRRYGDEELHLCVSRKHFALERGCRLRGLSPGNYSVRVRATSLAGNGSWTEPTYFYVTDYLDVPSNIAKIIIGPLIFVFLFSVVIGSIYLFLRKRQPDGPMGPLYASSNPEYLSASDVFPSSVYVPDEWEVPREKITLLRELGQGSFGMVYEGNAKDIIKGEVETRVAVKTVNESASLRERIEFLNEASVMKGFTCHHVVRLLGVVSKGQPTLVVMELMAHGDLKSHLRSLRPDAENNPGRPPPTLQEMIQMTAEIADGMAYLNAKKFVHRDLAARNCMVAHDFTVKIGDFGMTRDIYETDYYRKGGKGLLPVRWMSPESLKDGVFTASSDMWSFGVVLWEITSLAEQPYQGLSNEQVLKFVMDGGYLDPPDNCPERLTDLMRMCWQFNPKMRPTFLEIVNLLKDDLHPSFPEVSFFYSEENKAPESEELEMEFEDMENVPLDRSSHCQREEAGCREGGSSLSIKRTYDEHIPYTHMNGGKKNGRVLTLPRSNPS

B1: scl-Fc fusion protein INS022 (Fc fusion)
chain: FVNQHLCGSHLVEALELVCGERGFHYTPKTGSYPGGVGIVEQCCTSICSLSQLENYCGGEAEDLQVGQVELGGGPGAGSLQPEGSLQGGPSVFLFPPKPKDTLMISRTPEVTCVVVDVSHEDPEVKFNWYVDGVEVHNAKTKPREEQYNSTYRVVSVLTVLHQDWLNGKEYKCKVSNKALPAPIEKTISKAKGQPREPQVYTLPPSRDELTKNQVSLTCLVKGFYPSDIAVEWESNGQPENNYKTTPPVLDSDGSFFLYSKLTVDKSRWQQGNVFSCSVMHEALHNHYTQKSLSLSPGGGGGSAESKYGPPCPPCPA
Pig IR phosphorylation [EC 50 nM] mean (Pig IR): 15.9 nM
Rat IR phosphorylation [EC50 nM] mean (Rat IR): 64.9 nM
hIR-B-phosphorylation [EC50 nM] mean [1]: 42.2 nM
hIR-A phosphorylation [EC50 nM] mean [2]: 215 nM

B2: scl-Fc fusion protein INS023 (Fc fusion)
chain: SFVNQHLCGSHLVEALELVCGERGFHYTPKTGSYPGGVGIVEQCCTSICSLSQLENYCGGEAEDLQVGQVELGGGPGAGSLQPEGSLQGGPSVFLFPPKPKDTLMISRTPEVTCVVVDVSHEDPEVKFNWYVDGVEVHNAKTKPREEQYNSTYRVVSVLTVLHQDWLNGKEYKCKVSNKALPAPIEKTISKAKGQPREPQVYTLPPSRDELTKNQVSLTCLVKGFYPSDIAVEWESNGQPENNYKTTPPVLDSDGSFFLYSKLTVDKSRWQQGNVFSCSVMHEALHNHYTQKSLSLSPGGGGGSAESKYGPPCPPCPA
Pig IR phosphorylation [EC 50 nM] mean (Pig IR): 29.9 nM
Rat IR phosphorylation [EC50 nM] mean (Rat IR): 381 nM
hIR-B-phosphorylation [EC50 nM] mean [1]: 59.8 nM
hIR-A phosphorylation [EC50 nM] mean [2]: 408 nM
